{"source": "patent US20220380473A1", "about": "“ANTI-GAL3 ANTIBODIES AND USES THEREOF” (TrueBinding, Inc., priority 2019, published 2022)", "system": "MBT-2 cells", "test": "MBT-2 bladder tumor model, combination with anti-PD1 or anti-PD-L1", "type": "in vivo, mouse", "details": "20 mg/Kg i.p.", "procedure": "To evaluate the potential for GAL3-TIM3 blocking antibodies to influence tumor biology, studies were conducted in mice bearing MBT-2 bladder tumor xenografts in combination with other antibodies targeting the immunomodulatory checkpoint molecules PD-1 and PD-L1. Briefly, 7-week old female C3H/HeJ mice (Jackson Laboratory) were anesthetized by inhalation anesthetic (3 to 5% Isoflurane in medical grade air) and 1×10^6 MBT-2 cells (Sekisui XenoTech, LLC) in 0.1 mL PBS were subcutaneously injected into the right flank by using a syringe with a 25-ga needle. 7 days after tumor implantation, mice were randomly assigned into six groups (n=9-10). Mice were administrated intraperitoneally with isotype control mIgG2b (BioXCell), anti-Gal3 (mIMT001), anti-PD1 (RMP1-14, BioXCell) plus mIgG2b, anti-PD1 (RMP1-14) plus mIMT001, anti-PDL1 (10F.9G2, BioXCell) plus mIgG2b, and anti-PDL1 (10F.9G2) plus mIMT001. Isotype control and anti-Gal3 antibodies were dosed at 20 mg/Kg on day 7, 9, 12, 14 and 16; anti-PD1 (RMP1-14 10 mg/Kg) or anti-PDL1 (10F.9G2, 5 mg/Kg) were dosed on day 8, 12, and 15. Tumor volumes and body weights were monitored twice per week. The animals were humanely sacrificed when tumor volumes or animal health reached IACUC-defined endpoints. Results were expressed as mean±SEM, with statistical analysis performed by two-way ANOVA.", "note": "“Also recorded” adds a separate entry of the source.", "data": [{"molecule": "IMT001: anti-Gal3 monoclonal antibody (Immutics); printed as mIMT001 (IMT001), murine (antibody, V domains shown) VH: QIQLVQSGPELKKPGETVKISCKASGYTFTNYGMNWVKQAPGKGLKWMGWINTNTGEPTYVEEFKGRFAFSLETSASTAYLQINNLKNEDTATYFCAPYDNFFAYWGQGTLVTVSA VL: DIVITQDELSNPVTSGESVSISCRSSKSLLYKDGKTYLNWFLQRPGQSPQLLIYLMSTHASGVSDRFSGSGSGTDFTLEISRVKAEDVGVYYCQQLVDYPLTFGAGTKLELK", "values": [{"measurement": "effect on tumor volume, single agent", "result": "did not exhibit any significant decrement in tumor volume; also recorded: did not reduce tumor volumes"}]}]}
